Measurements published in patent US12539335B2, “Tricyclic polypeptide conjugated drug and use thereof” (CONJUSTAR (ZHUHAI) BIOLOGICS CO., LTD., priority 2021, dated 2026).
Counter-ions that a name gives are not always drawn. Starred links: 1 amine or outer side, 2 acyl side, 3 side chain; linkers in the order of their positions; H or OH if unused. Positions of bridges follow the written chain, without caps; N, C: chain ends. Non-standard residues stand in square brackets, D forms with d. Residues, ends and D or L forms follow the SMILES beside them. Chains are numbered I, II in the order given. *: point of attachment. TATA = O=C(CC[*:1])N1CN(C(=O)CC[*:2])CN(C(=O)CC[*:3])C1; Dolaproine = CO[C@@H]([C@@H]1CCCN1)[C@@H](C)C(=O)O; Dil = CC[C@H](C)[C@H](NC)[C@@H](CC(=O)O)OC; 1Nal = N[C@@H](Cc1cccc2ccccc12)C(=O)O; X2 = O=C(CCCC(=O)[*:2])NCCC(=O)[*:1]; PABC = O=C(OCc1ccc(N[*:1])cc1)[*:2]; X1 = C[C@@H](N*)[C@@H](O)c1ccccc1; Hyp = O=C(O)[C@@H]1C[C@@H](O)CN1; hArg = N=C(N)NCCCC[C@H](N)C(=O)O; Cit = NC(=O)NCCC[C@H](N)C(=O)O; Pen = CC(C)(S)[C@H](N)C(=O)O; NMeV = CN[C@H](C(=O)O)C(C)C; Sar = CNCC(=O)O

Experiments:
[1] = Stability in plasma, Cynomolgus macaques; assay type: in vitro ADME; details: cynomolgus macaque, 37° C.
Experimental: Test Example 9: Stability Analysis of the Compounds of the Present Invention in Plasma from Different Species
To test the stability of the compounds of the present invention in plasma from SD rats, Cynomolgus macaques, and humans.
The corresponding incubation plates, including T0, T10, T30, T60, T120, and T240 incubation plates, were added with a 2 μL working solution of the compound to be tested (100 μM). Three parallel wells were prepared for each sample. Then, 98 μL of blank plasma from SD rats, Cynomolgus macaques, and humans was added to the corresponding incubation plates to which the working solution had been added. All samples were incubated in a 37° C. water bath. […] At the end of each incubation time point, the corresponding incubation plate was removed, added with stop buffer, precipitated, and centrifuged for 20 minutes. Then, 150 μL of the supernatant was analyzed by the LC-MS/MS method. The concentration of the compound to be tested in the sample was semi-quantitatively determined by the liquid chromatography-tandem mass spectrometry (LC-MS/MS) method.

[2] = Metabolic stability in hepatocytes, humans; assay type: in vitro ADME; details: human, hepatocytes (cryopreserved, suspension), 0.5×10^6 cells/mL
Experimental: (§1) Test Example 7: Metabolic Stability of the Compounds of the Present Invention in Hepatocytes from Mice, Rats, Cynomolgus Macaques, and Humans
(§2) To investigate the metabolic stability of the compounds of the present invention in hepatocytes from mice, rats, Cynomolgus macaques, and humans.
(§3) Incubations were performed in 96-well plates using an external extraction method. Several 96-well sample precipitation plates, designated T0, T15, T30, T60, T90, TO-MC, T90-MC, and blank matrix, were prepared, respectively. The recovery culture medium and incubation culture medium were removed in advance and placed in a 37° C. water bath for preheating. […]
(§4) At the end of the incubation at the corresponding time point, the incubation plates were removed, from which 25 μL of a compound mixture with the cells and a control compound mixture with the cells were removed and added to sample plates containing 125 μL of stop buffer, respectively. […] All samples were mixed uniformly and then analyzed by the LC-MS/MS method.
(§5) The concentration of the compound to be tested and the concentration of the control in the sample were semi-quantitatively determined by the liquid chromatography-tandem mass spectrometry (LC-MS/MS) method without a standard curve and quality control sample. […]

[3] = test system: MDA-MB-468 cells; experiment: In vitro anti-proliferative activity, CellTiter-Glo, MDA-MB-468; assay type: cell-based, Human; details: MDA-MB-468, 72 h
Experimental: Test Example 2: In Vitro Anti-Proliferative Activity of the Compounds of the Present Invention on Nci-H292 and Mda-Mb-468 Cells
To investigate the effect of the compounds of the present invention on inhibiting cell proliferation by detecting the effect of the compounds on cell activity in vitro in tumor cell lines MDA-MB-468 and NCI-H292.
The tumor cell lines were cultured in a 37° C., no CO2 incubator and a 37° C., 5% CO2 incubator according to the culture conditions shown in Table 8, respectively. The cells were periodically passaged, and cells in a logarithmic growth phase were taken for plating.
Cells in a logarithmic growth phase were harvested and centrifuged at 1000 rpm for 3 min at room temperature. The supernatant was discarded, and the cells were resuspended in 5 mL of a culture medium. Then, 20 μL of the cell suspension was pipetted and mixed with trypan blue at 1:1 for staining for 3 min to detect cell viability and to count viable cells. The cell density was adjusted to 3000 cells/well. Then, 90 μL of the cell suspension was added to each culture plate well, and a cell-free culture medium was added to blank control wells. The culture plate was incubated overnight in a 37° C., no CO2, and 100% relative humidity incubator and a 37° C., 5% CO2, and 100% relative humidity incubator, respectively.
Preparation of a 400× compound stock plate: The compound to be tested was gradient diluted with DMSO from the highest to the lowest concentration.
Preparation of a 10× compound working solution: 78 μL of a cell culture medium was added to a V-bottomed 96-well plate, and 2 μL of the compound solution of each concentration was pipetted from the 400× compound stock plate into the cell culture medium in the 96-well plate. Then, 2 μL of DMSO was added to vehicle control and blank control. […]
The detection was performed according to the instructions of the Promega CellTiter-Glo Luminescent Cell Viability Assay kit (Promega-G7573). The luminescence signal was detected on the En Vision® Multi-mode Plate Reader (En Vision 2104-10). […]

[4] = Metabolic stability in hepatocytes, SD rats; assay type: in vitro ADME; details: Sprague-Dawley (SD), rat, hepatocytes (cryopreserved, suspension), 0.5×10^6 cells/mL
Experimental: as §1, §2, §3, §4, §5

[5] = Metabolic stability in hepatocytes, Cynomolgus macaques; assay type: in vitro ADME; details: cynomolgus macaque, hepatocytes (cryopreserved, suspension), 0.5×10^6 cells/mL
Experimental: as §1, §2, §3, §4, §5

SMILES: CC[C@H](C)[C@@H]([C@@H](CC(=O)N1CCC[C@H]1[C@H](OC)[C@@H](C)C(=O)N[C@H](C)[C@@H](O)c1ccccc1)OC)N(C)C(=O)[C@@H](NC(=O)[C@H](C(C)C)N(C)C(=O)OCc1ccc(NC(=O)[C@H](CCCNC(N)=O)NC(=O)[C@@H](NC(=O)CCCC(=O)NCCC(=O)N(C)CC(=O)N(C)CC(=O)N(C)CC(=O)N(C)CC(=O)N(C)CC(=O)N(C)CC(=O)N(C)CC(=O)N(C)CC(=O)N(C)CC(=O)N(C)CC(=O)N[C@H]2CCCCNC(=O)C[C@@H](C(=O)N[C@H]3CSCCC(=O)N4CN5CN(C4)C(=O)CCSC(C)(C)[C@H](NC(=O)[C@@H](CC(=O)O)NC(=O)[C@H](Cc4cccc6ccccc46)NC(=O)[C@@H]4CCCN4C3=O)C(=O)N[C@@H](CCSC)C(=O)N[C@@H](CCCCNC(=N)N)C(=O)N[C@@H](CC(=O)O)C(=O)N[C@@H](Cc3c[nH]c4ccccc34)C(=O)N[C@@H](CO)C(=O)N[C@@H]([C@@H](C)O)C(=O)N3CCC[C@H]3C(=O)N3C[C@H](O)C[C@H]3C(=O)N[C@@H](Cc3c[nH]c4ccccc34)C(=O)N[C@H](C(N)=O)CSCCC5=O)NC(=O)CN(C)C2=O)C(C)C)cc1)C(C)C [Acetate salt of PDC_2] (I: [Sar][Sar][Sar][Sar][Sar][Sar][Sar][Sar][Sar][Sar]K[Sar]DCP[1Nal][dD][Pen]M[hArg]DWSTP[Hyp]WC-NH2 / II: V[Cit][PABC][NMeV]V[Dil][Dolaproine]-X1; lactam I:11-I:13; linker I:14-I:18-I:28 via TATA; linker I:N-II:N via X2)
- half-life at 2 μM [1]: > 9.63 h
- half-life at 1 μM [2]: > 3.61 h
- CLint scaled at 1 μM ([2]; read-out: CLint (liver)): < 17.8 mL/min/kg
- IC50 [3]: 32.3 nM
- Maximum inhibition rate [3]: 86.28%
- Minimum inhibition rate [3]: −10.28%
- half-life at 1 μM [4]: > 3.61 h
- CLint scaled at 1 μM ([4]; read-out: CLint (liver)): < 29.9 mL/min/kg
- half-life at 1 μM [5]: > 3.61 h
- CLint scaled at 1 μM ([5]; read-out: CLint (liver)): < 23 mL/min/kg
